# According to the nanobody polyreactivity screen of Harvey et al. (2022):
# Assay: yeast display, Sf9 membrane polyspecificity reagent, FACS + sequencing; frameworks hold sequencing errors
# Summary of the method: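 Nanobodies came from a synthetic yeast display library in Saccharomyces cerevisiae BJ5465, induced with galactose for 36–48 hours and stained for 1 hour at 4 °C with 10% biotinylated, detergent-solubilized Sf9 membrane reagent. Cells were enriched on streptavidin microbeads and then FACS-sorted, with low and high (top ~1%) gates set on anti-HA fluorescence for expression and streptavidin fluorescence for reagent binding. Each polyreactivity label reflects the gate a clone came from. Genes were amplified by colony PCR, sequenced by MiSeq 2 × 250 and filtered by CDR length.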
row,Sequence,polyreactivity (PSR sort gate)
1,QVQLVESGGGLVQAGGSLRLSCAASGLTFWGYAMGWYRQAPGKEREFVASISSGGGSTYYADSVKGRFTISRDNAKNTVYLQMNSLKPEDTAVYYCNADRTQDRNPYTYATFDYWGQGTQVTVSS,low polyreactivity
2,QVQLVESGGGLVQAGGSLRLSCSASGSIFNYYTMGWDRQAPGKERELVAVITWSDDSTYYADSVKGRFTISRDNAKNTVYLQMNSLKPEDTAVYYCNARSWGWYRIAYGYWGQGTQVTVSS,low polyreactivity
3,QVQLVESGGGLVQAGGSLRLSCAASGSIFQDNTMGWYRQAPGKERELVAAISWSATSTYYADSVTGRFSISRDNAKNTVYLQMNRLKPEDTAVYDCAAGRSYRRYAYYYWGQGTQVTVSS,high polyreactivity
4,QVQLVESGGGLVQAGGSLRLSCAASGSIFWYNAMGWYRQAPGKERELVAAITSGGTTSYADSVKGRFTISRDNAKNTVYLQMNSLKPEDTAVYYCAKDWNDDQHSWDTPFDYWGQGTQVTVSS,low polyreactivity
5,QVQLVESGGGLVQAGGSLRLSCAASGSILGTYAMGWTIQAPGKERELVAAISSSGRTSYADSEKGRFTISRDNAKNTVYLQMNSLKPEDTAVYYCNASNYIVLINDPDAAPWLYDYWGQVTQVTVSS,low polyreactivity
6,QVQLVESGGGLVQAGGSLRLSCAASGITFYVYTMGWYRQAPGKERELVAAINGSGGSTNYADSVKGRFTISRDNAKNTVFLQMNSLKPEDTAVYYCAADWSLRLYDYWGQGTQVTVSS,low polyreactivity
7,QVQLVESGGGLVQAGGSLRLSCAASGSTFDFNAMGWYRQAPGKERELVAAITGSDGNTYYADSVKGRFTISRDNAKNTVYLQMNSLKPEDTAVYYCAADFSWWSKYVVLYDYWGQGTQVTVSS,low polyreactivity
8,QVQLVESGGGLVQAGGSLRLSCAASGRIFVANAMGWYRQAPGKERELVAAISRRGGRTYYADSVKGRFTISRDNAKNTVYLQMNSLKPEDTAVYYCARVPTRAEDVAGWTGMDYWGQGTQVTVSS,high polyreactivity
9,QVQLVESGGGLVQAGGSLRLSCAASGRIFARNAMGWYRQAPGKESELVAAITSSGSTYYADSVKGRFTISRDNAKNSVYLQMNSLKPEDTAVYYCAADGHAYRSNFWGQGTQVTVSS,low polyreactivity
10,QVQLVESGGGLDQAGGSLRLSCAASGSILDSYTMGWYRQAPGKERELVPAITSDGGSTYYADSVKGRFTISRDNAKNTVYLQMNSLKPEDTAVYYCAKLSRYYGFWYTPDFDYWGQGTQVTVSS,high polyreactivity
11,QVQLVESGGGLVQAGGSLRLTCAASGHIFFYYTMGWYRQAPGKERELVARISSDGDTYYADSVKGRFTISRDNAKNTVYLQMNSLKPEDTAVYYCAAAVLYWVGYGYWGQGTQVTVSS,low polyreactivity
12,QVQLVESGGGLVQAGGSLRLSCAASGSIFRGYAMGWYRQAPGKERELVAAITSSGGSTNYADSVKGRFTISRDNAKNTVYLQMNSLKPEDTAVYYCAKAPGLWHLIQRMDYWGQGTQVTVSS,low polyreactivity
13,QVQIVESGAGLVQAGGSLRISCAPSGRTFLYNAMGWYIQAPGKESELVAAIDGGTGSTYYADSVKARFTISRDNAKNTVYLQMIRLNPEDTAGYYCAAETYGVGYPVNYDYWGQGTQVTVSS,low polyreactivity
14,QDQLVESGGGLVQAGGSLSLSCAASGRIFYWYVIGWYRQAPGKEREYVASISWSGGSTYYADSVKGRFTISRDNAKNTVYLQMNSLKPEDTAVYYCNAGSVYTVSLTGHPYDYWGQGTQVTVSS,low polyreactivity
15,QVQLVESGGGLVQAGGSLRLSCADSGNIFNYYAMGWYRQAPGKERELVAAISTSGGRTYYADSVKGRFTISRDNAKNTVYLQMNSLKPEDTAVYYCAKVNRLYTYDYWGQGTQVTVSS,high polyreactivity
16,QVQLVESGGGLVQAGGSLRLSCAASGRIFFDYAMGWYRQAPGKERELGADISYNGGSTNYADSVKGRFTISRDNAKNTVYLQMISLKPEDTAVYYCNRALVPVYDLDYYWGQGTQVTVSS,low polyreactivity
17,QVQLVESGGGLVQAGGSLRLSCAASGSIFDVYAMGWYRQAPGQERELVAAISRGDSTNYADSVKGRFTISRDNAKNTVYLQMNSLKPEDTAVYYCAADCYYWGSGWRYDSWGQGTQVTVSS,low polyreactivity
18,QVQLVESGGGLVQAGGSLRLSCAASGFTFYQYAMGWYRQAPGKERELVAAITRRGGSTSYADSVKGRFTISRDNAKNTVYLQMNSLKPEDTAVYYCAREGSNSGRHGTLFDYWGQGTQVTVSS,high polyreactivity
19,QVQLVESGGGLVPAGGSLRLSCAASGFTFRRYDMGWYRHAPGKERELVAAISWSSDGTYYADSVKGRFTISRDNAKNTVYLQINSLKPEDTAVYYCAARWGTKSGRYDYWGQGTQVTVSS,high polyreactivity
20,QVQLVESGGGLVQAGGSLRLSCAASGRIFGYNAMGWYRQAPGKERELVAAISDDGSTNYADSVKGRFTISRDNAKNTVYLQMNSLKPEDTAVYYCNADITFYTWGWYYIRYEYWGQGTQVTVSS,low polyreactivity
21,QVQLVESGGGLVQAGGSLRLSCAASGSTLWVYAMGSYRQAPGKERELVAAITQSTGDTHYADSVKGRFTISRDNAKNTVYLQMNSLKPEDTAVYYCAADSYLSVYDPYGYWGQGTQVTVSS,low polyreactivity
22,QVQLVESGGGLVQAGGSLRLSCAASGSIFDYNTMGWYRQAPGKERELVAAISSGGSTYYADSVKGRFTISRDNAKNTVYLQMNSLKPEDTAVYYCAARRAGWWGFYYWGQATQVTVSS,high polyreactivity

row,Sequence,polyreactivity (PSR sort gate)
1,QVQLVESGGGLVQAGGSLRLSCAASGSIFPGNAMGGYRQAPGKERELVAAIRGGGSTNYADSVKGRFTISRDTAKNTVYIQMNSLKPEDTAVYYCAAQGILGSYDYWGQGTQVTVSS,low polyreactivity
2,QVQLVESGGGLVQAGGSLRLSCAASGLTSYDYGMGWYRPAPGIERELVAAITWSGGSTYYADSVKGRFTISRDNAKNTVYLQMNSLKPEDTAVYYCAADTWGYGWYGYWGHGTQVTVSS,low polyreactivity
3,QVQLVESGGGLVQAGVSLLLTCAASGRISFRYAMVWYRQAPGKERELVAAINRGGITNYADSVKGRFTISRDNAKNTVYLKMNSLKKEDTAVYYCAARYASPRYKSKMDYWGQGTQVTVSS,high polyreactivity
4,QVQLVESGGGLVQAGGSLRLSCAASGRIFTRNTMGWYRQAPGKERELVAAISGRGGSTYYADSVKGRFTISRDNAKNTVYLQMNSLKPEDTAVYYCAADGVYRGGYDYWGQVTQVTVSS,high polyreactivity
5,QVQLVESGGGLVQAGGSLRLSCAASGRTFGGNAMGWYRQAPGKERQLVASISSSGGRTYYAVSVKGRFTISRDNAKNTVYLQMNSLKPEDTAVYYCAVAWNVRGVGARQRYIYGYWGQGTQVTVSS,high polyreactivity
6,QVQLVESGGGLVQAGGSLRLSCAASGSTFAKNAMGWYRQAPGKERELVAAISRGGNTYYADSVKGRFTISRDNAKNTVYLHMNSLKPEDTAVYYCAKLPYTRTYLGSLYDYWGQGTQVTVSS,high polyreactivity
7,QVQLVESGGGLVQAGGSLRLSCAASGRTFGGNAMGWYRQAPGKERELVAAINSDGGRTYYADSVKARFTISRDNAKNTVYLQMNSLKPEDTAVYYCNRAYRKSYTGYGYDYWGQGTQVTVSS,high polyreactivity
8,QVQLVESGAGLVQAGGSLRLSCAASRRIIYKYAMGWYSQAPGKERELVAAITSGGSTYYADSVKGRYTISRDNAKNTVDLQMNSLKPQDTAVYYCAASYARLSVWYDYWRQGTQVTVSS,high polyreactivity
9,QVQLVESGGGLVQAGGSLRLSCAASGSTFAVNVMGWYRQAPGKERELVATITYRDGRTYYADSVKGRFTISRDNAKNTVYLQMNSLKPEDTAVYYCAADDEYKQEAEMDSWGQGTQVTVSS,low polyreactivity
10,QVQHEESGRGLVQAGGSLRLSCAASGINCVYYAMGCYRQAPGKERELVAAISKNGGSTYYADSVKGRFTISRDNAYNTVYLQMNSLKPEDTAVYYCAAEEGYRWVRYNYWGQGTQVTVSS,high polyreactivity
11,QVQRVESGGGLVQAGGSLRLSCAASGSIRGYAMGWYRQAPVKERELVAAISWRGGSTYYADSVKGRFTISRDNAKNTVYLQMNSLKPEDTAVYYCATKGYPHVSTWMDSWGQGTQVTVSS,low polyreactivity
12,QVQLVESGGGLVQAGGSLRLSCGASGFTFSGNVMGWYRQAPGKEREFVAAITSRGGSSYYADSVKGRFTISRDNAKNTVYLQMNSLKPEDTAVYYCNRRRWYFFSLDYWGQGTQVTVSS,high polyreactivity
13,QVQLVESGGGLVQAGGSLRLSCAASGRIFESKAMGWYRQAPGKERELVAAISVNGASTSYADSVKGRFTISRDNAKNTVYLQMNSLKPEDTAVYYCAARRGKGYYYWGQGTQVTVSS,high polyreactivity
14,QVQLVESGGGLVQAGGSLRLSCAASGSIFYVYAMGWYRQAPGKERELVAAINTSGGSTFYADSVKGRFTISRDNAKNTVYLQMNSLKPEDTAVYYCAAERFRYRSTDTMGYWGQGTQVTVSS,low polyreactivity
15,QVQLVESGAGLVQAGGSLRLSCAASGSTFSYNAMGWYRQAPGKERELVAAISRRGDSTYYADSVKGRFTISRDNAKNTVYLQMNSLKTEDTAVYYCYAVTYYSHRYFSWYSRKGYDYWGQGTEVTVSS,high polyreactivity
16,QVQLVESGGGLVQAGGSLRLSCAASGRIFFRNAMGWYRQAPGKERELVAAITWNGGSTYYADSVKGRFTISRDIAKNTVYLQMNSLKPEDTAVYYCNKAGVSYRSQYYYWGQGTQVTVSS,high polyreactivity
17,QVQLVESGGGLVQAGGSLRVSCAASGRTFARYALAWYRQAPGKERELVAAISRGGTTNYADSVKGRFTISRDNAKNTVYLQMNSLKPEDTAVDYCNRDFHLSHLSSARLDYWGQGTQVTVSS,low polyreactivity
18,QVQLVESGGGLVQAGGSLRLSCAASGFTFRINAMGWYRQAPGKERELVAAISWSGGSTYYADSVKGRFTISRDNAKNTVYLQMNSLKPEDTAVYYCNKVQSSRYRSQRTFQYGYWGQGTQVTVSS,high polyreactivity
19,QVQLVESGGGLVQAGGSLRLSCAASGSIFFVNAMGWYRQAPGKERELVAAITSGGNTNYADSVKGRFTISRDNAKNTVYFQMNSLKPEDTAVFYSATSYYLAYRSITTYDYWGQGTQVTVSS,low polyreactivity
20,QVQLVESGGGLVQAGGSLRLSCAASGIIFGGYAMGWYRQAPGKERELVASISYSGGSTYYADSVKGRFTISRDNAKNTVYLQMNSLKPEDTAVYYCAAGYPRTPAAGYYWGQGTQVTVSS,high polyreactivity
21,QVQLVESGGGLDQAGGSLRLSCAASGLTFRYYAMGWYRQAPGKERELVAGISGRGGSTYYADSVKGRFTISRDNAKNTVYLQMNSLKPEDTAVYYCAADYSYGRFRRFDYWGQGTQVNVSS,high polyreactivity
